Data on one substance can be found in article PMC5502743.

What all share (assay): single-molecule FRET imaging
The target in test [1] is Cy3B*/Cy7*-labeled β2Δ6-148C/266C (full-length, minimal cysteine β2 adrenergic receptor mutant) (UniProt P07550).
For test [2] the target is unchanged. This is another data set of the same source.
Test [3] has the same target. The source holds these as a separate data set.
For test [4] the target is unchanged. The source holds these as a separate data set.
Test [5] shares this target. This is another data set of the same source.
For test [6] the target is unchanged. The source holds these as a separate data set.

Read-outs that look alike come from different tables or passages of the source.

As to “Gs heterotrimer (Gαs, Gβ and Gγ) (from UniProt P63092 1-394; P62873 1-340; P59768 1-71) (complex)”, the k (high→low) (transition rate from high- to low-FRET states) in test [1] was determined as 1.1 s⁻¹; in test [2] it was 0.7 s⁻¹; in test [3], 0.6 s⁻¹; in test [4], 0.4 s⁻¹; in test [5] it was 0.7 s⁻¹; in test [6], 0.7 s⁻¹. In test [3], the percent Gs coupling fell in the range of 5 to 20%.
